Here are results for two substances from patent WO2018134389A1.

Experiment [1] concerns the target DC-SIGN ECD immobilised on a streptactin-functionalised SPR surface (human) (UniProt Q9NNX6).
Experiment [2] has the same target. The source holds these as a separate data set.

Like-named read-outs stand apart in the source and are kept apart here.

DC-SIGN ECD immobilised on a streptactin-functionalised SPR surface (human), sequence (Q9NNX6 59-404): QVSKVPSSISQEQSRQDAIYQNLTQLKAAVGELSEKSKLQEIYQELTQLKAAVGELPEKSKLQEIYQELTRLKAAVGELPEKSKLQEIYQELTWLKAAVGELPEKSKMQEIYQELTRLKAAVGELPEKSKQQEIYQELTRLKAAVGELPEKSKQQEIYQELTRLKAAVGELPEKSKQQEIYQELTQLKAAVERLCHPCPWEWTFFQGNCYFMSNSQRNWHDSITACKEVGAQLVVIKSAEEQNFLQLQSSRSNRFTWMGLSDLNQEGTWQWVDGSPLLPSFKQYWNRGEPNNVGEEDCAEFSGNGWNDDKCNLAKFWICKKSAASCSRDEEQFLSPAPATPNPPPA
HCMV gB treated with a(1-2,3,6)-mannosidase, sequence (P13201 25-907 limits assumed): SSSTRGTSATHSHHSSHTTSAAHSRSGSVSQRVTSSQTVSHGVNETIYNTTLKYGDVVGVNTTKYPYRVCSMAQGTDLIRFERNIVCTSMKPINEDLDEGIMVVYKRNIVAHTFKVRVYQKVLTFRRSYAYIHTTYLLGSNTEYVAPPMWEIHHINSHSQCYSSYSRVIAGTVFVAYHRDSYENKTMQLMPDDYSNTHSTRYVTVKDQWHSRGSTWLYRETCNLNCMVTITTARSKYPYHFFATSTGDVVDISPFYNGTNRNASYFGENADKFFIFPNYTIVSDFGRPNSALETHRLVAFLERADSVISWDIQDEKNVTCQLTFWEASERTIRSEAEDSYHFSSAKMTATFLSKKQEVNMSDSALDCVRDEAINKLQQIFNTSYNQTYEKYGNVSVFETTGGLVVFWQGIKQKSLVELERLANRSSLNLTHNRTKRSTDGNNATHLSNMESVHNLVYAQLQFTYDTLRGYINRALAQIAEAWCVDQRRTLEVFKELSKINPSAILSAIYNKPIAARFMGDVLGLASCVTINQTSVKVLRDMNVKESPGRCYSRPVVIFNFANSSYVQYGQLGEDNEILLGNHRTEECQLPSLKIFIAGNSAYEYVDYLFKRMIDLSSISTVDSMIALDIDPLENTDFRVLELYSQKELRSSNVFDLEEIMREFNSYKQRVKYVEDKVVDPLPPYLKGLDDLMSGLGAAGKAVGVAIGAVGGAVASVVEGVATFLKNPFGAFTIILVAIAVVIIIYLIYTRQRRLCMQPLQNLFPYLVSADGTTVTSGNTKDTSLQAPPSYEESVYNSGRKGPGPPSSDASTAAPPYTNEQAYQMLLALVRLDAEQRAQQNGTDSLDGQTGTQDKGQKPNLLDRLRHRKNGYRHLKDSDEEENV
CHO-derived recombinant CMV glycoprotein B (soluble recombinant HCMV gB), untreated, sequence (P13201 25-907 limits assumed): as above

For orientation: Kd means the free concentration of one partner at which half of the binding sites on the other are occupied at equilibrium, for simple one-to-one binding. “HCMV gB treated with a(1-2,3,6)-mannosidase (from UniProt P13201 25-907) (ligand)” yielded an equilibrium dissociation constant (Kd) in experiment [1] of 149 pM.
Substance “CHO-derived recombinant CMV glycoprotein B (soluble recombinant HCMV gB), untreated (from UniProt P13201 25-907) (ligand)” yielded a Kd in experiment [2] of 14 pM.
